Source: PMC9181159, “High Nitric Oxide Concentration Inhibits Photosynthetic Pigment Biosynthesis by Promoting the Degradation of Transcription Factor HY5 in Tomato”

Molecular target: T1, HY5 (LONG HYPOCOTYL 5) (Solanum lycopersicum, UniProt Q9SM50 1-158)
T1 sequence: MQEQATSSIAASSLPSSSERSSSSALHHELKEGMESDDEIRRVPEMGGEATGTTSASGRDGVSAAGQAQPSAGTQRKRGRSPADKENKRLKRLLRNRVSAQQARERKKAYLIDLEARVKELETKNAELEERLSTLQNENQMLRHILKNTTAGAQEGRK
Assay: EMSA; no GSNO; LightShift Chemiluminescent EMSA Kit, 20 min at room temperature, 6% native polyacrylamide gel; buffer, salt and pH not stated
Conditions: protein: recombinant; tags: His (pET-32a fusion); chain copies: 2; label: biotin 3' end; blunt

B1: PSY2-wt probe (dsDNA)
DNA 1: CTGTGATTTACACGTGTCCTCTTTAT
DNA 2: ATAAAGAGGACACGTGTAAATCACAG
binding result: binds

B2: PORC-wt probe (dsDNA)
DNA 1: CAAAATGCAACACGTGATGTATGAAT
DNA 2: ATTCATACATCACGTGTTGCATTTTG
binding result: binds
